In US20260035450:

Molecular target: T1, recombinant human ANGPTL3 (rhANGPTL3) (SEQ ID NO:1)
T1 chain: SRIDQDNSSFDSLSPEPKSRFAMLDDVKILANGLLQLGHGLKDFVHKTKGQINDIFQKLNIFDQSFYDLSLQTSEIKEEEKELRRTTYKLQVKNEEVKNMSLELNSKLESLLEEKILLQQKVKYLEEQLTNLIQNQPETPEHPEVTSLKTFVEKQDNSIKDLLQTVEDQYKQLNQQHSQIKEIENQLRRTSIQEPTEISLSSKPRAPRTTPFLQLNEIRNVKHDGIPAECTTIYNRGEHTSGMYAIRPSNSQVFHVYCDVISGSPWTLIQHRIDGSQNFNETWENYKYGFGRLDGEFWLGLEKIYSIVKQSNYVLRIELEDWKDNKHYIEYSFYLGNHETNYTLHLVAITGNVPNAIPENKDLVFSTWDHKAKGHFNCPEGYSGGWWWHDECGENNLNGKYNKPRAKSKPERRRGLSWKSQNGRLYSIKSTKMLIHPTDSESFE

B1: bovine LPL (protein)
chain: DRITGGKDFRDIESKFALRTPEDTAEDTCHLIPGVTESVANCHFNHSSKTFVVIHGWTVTGMYESWVPKLVAALYKREPDSNVIVVDWLSRAQQHYPVSAGYTKLVGQDVAKFMNWMADEFNYPLGNVHLLGYSLGAHAAGIAGSLTNKKVNRITGLDPAGPNFEYAEAPSRLSPDDADFVDVLHTFTRGSPGRSIGIQKPVGHVDIYPNGGTFQPGCNIGEALRVIAERGLGDVDQLVKCSHERSVHLFIDSLLNEENPSKAYRCNSKEAFEKGLCLSCRKNRCNNMGYEINKVRAKRSSKMYLKTRSQMPYKVFHYQVKIHFSGTESNTYTNQAFEISLYGTVAESENIPFTLPEVSTNKTYSFLLYTEVDIGELLMLKLKWISDSYFSWSNWWSSPGFDIGKIRVKAGETQKKVIFCSREKMSYLQKGKSPVIFVKCHDKSLNRKSG
- in vitro enzymatic activity of lipoprotein lipase (LPL), EnzChek Lipase substrate: The activity of bovine LPL is inhibited by addition of recombinant hANGPTL3 (rhANGPTL3)
